Target: human mesothelin protein (MSLN antigen, Acro Biosystems) (human, UniProt Q13421 37-622)
Assay: ELISA, coated human mesothelin 1 ug/mL, purified scFv serially diluted, anti-StrepMAB HRP

Chain of human mesothelin protein (MSLN antigen, Acro Biosystems) (Q13421 37-630): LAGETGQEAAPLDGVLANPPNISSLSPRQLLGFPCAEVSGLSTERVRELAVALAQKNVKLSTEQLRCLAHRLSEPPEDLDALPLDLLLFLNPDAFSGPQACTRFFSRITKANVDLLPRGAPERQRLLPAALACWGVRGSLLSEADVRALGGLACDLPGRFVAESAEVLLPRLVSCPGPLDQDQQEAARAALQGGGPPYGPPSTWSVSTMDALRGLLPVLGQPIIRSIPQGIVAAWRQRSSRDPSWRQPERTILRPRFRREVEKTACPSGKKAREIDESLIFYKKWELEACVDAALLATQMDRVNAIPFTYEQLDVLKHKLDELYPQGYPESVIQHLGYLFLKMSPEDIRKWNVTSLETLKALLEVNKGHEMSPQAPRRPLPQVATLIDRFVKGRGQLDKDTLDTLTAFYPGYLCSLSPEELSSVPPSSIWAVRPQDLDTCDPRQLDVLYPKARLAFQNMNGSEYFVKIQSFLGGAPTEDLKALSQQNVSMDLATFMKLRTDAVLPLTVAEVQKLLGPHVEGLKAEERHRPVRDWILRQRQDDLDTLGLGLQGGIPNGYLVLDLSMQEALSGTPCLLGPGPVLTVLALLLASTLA

B1: anti-MSLN-scFv antibody MSLN3 (purified scFv) (scFv)
chain: EVQLVESGGGLVQPGGSLRLSCAASGFTFSDYAMSWVRQAPGKGLEWVSAISSSGGTTYYADSVKGRFTISRDNSKNTLYLQMNSLRAEDTAVYYCAKEEEGEWREYFDVWGQGTLVTVSSGGGGSGGGGSGGGGSDIQMTQSPSSLSASVGDRVTITCRASQSISSYLNWYQQKPGKAPKLLIYATSTLQSGVPSRFSGSGSGTDFTLTISSLQPEDFATYYCQQSYTFPYTFGQGTKVEIKAST
Which EC50 does the source give for B1 here?
Its EC50 is 0.145 µM.
